In paper PMC10307625, “Inhibiting membrane rupture with NINJ1 antibodies limits tissue injury” (Nature, 2023):

Target: the molecule itself
Assay: SEC; purified Flag–NINJ1 alone on Superose 6 Increase 10/300 GL; 20 mM HEPES pH 7.5, 150 mM NaCl, 0.005% LMNG, 0.0005% CHS; peak at 8.5 ml retention volume

B1: N-terminally Flag-tagged mouse NINJ1 (natural protein, UniProt O70131 1-152, looked up)
chain: MESGTEEYELNGDLRPGSPGSPDALPPRWGLRNRPINVNHYANKKSAAESMLDIALLMANASQLKAVVEQGNDFAFFVPLVVLISISLVLQIGVGVLLIFLVKYDLNNPAKHAKLDFLNNLATGLVFIIVVVNIFITAFGVQKPVMDVAPRQ
notes: NINJ1 (ninjurin-1), mouse, expressed from pRK-Flag-mNINJ1; Membrane protein solubilised in 1% LMNG / 0.1% CHS; the oligomer size is heterogeneous and no copy number is told; also called Flag–NINJ1; recombinant NINJ1; source: Expi293F cells, transiently transfected, purified (anti-Flag M2 resin, Superose 6 SEC) in LMNG/CHS; not shown: FLAG, N-terminal, kept
B1: binds.
